Experimental data published in the nanobody polyreactivity screen of Harvey et al. (2022).

Test: yeast display, Sf9 membrane polyspecificity reagent, FACS + sequencing; frameworks hold sequencing errors
Procedure, shortened: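 Sorting gates, low and high (top ~1%), were placed on anti-HA fluorescence to track expression and on streptavidin fluorescence to track reagent binding. A clone's polyreactivity label is taken from the gate it came out of. The reagent was 10% biotinylated, detergent-solubilized Sf9 membrane, applied for 1 hour at 4 °C to galactose-induced yeast display cells.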

Sequence | polyreactivity (PSR sort gate)
QVQLVESGGGLVQAGGSLRLSCAASGGIFGSYAMGWYRQAPGKERELVAAISGGSTYYADSVKGRFTISRDNAKNTVYLQMNSLKPEDTAVYYCAAGWSVWYQDFDYWGQGTQVTVSS | high polyreactivity
QVQLVESGGGLVQAGGSLRLSCAASGGIFGVYAMVWYRQAPGKERELVAAISQSDTSTYYADSVKGRFTISRDNAKNTVYLQMNSLKPEDTAVYYCADEYYLDYYTWFDYWGQGTQVTVSS | high polyreactivity
QVQLVESGGGLVQAGGSLRLSCAASGGIFGYYAMGWYRQAPGKERELVAAISISGGRTYYADSVKGRFTISRDNAKNTVYLQMNSLKPEDTAVYYCKAARKVYVRGRGSEMDYWGQGTQVTVSS | low polyreactivity
QVQLVESGGGLVQAGGSLRLSCAASGGIFHPNDMGWYRQAPGKESELVAVIDSGDITNYADSVKGRFTISRDNAKNTVYLQMNSLKPEDTAVYYCAADSYSYFTDDHGYWGQGTQVTVSS | high polyreactivity
QVQLVESGGGLVQAGGSLRLSCAASGGIFHVYGMGWYRQAPGKERELVAAISYSGASTSYADSVKGRFTISRDNAKNTVYLQMNSLKPEDTAVYYCAAKVYYRRYRSGYDYWGQGTQVTVSS | high polyreactivity
QVQLVESGGGLVQAGGSLRLSCAASGGIFHYYAMGWYRQAPGKERELVAAISWNTGSTYYADSVKGRFTISRDNAKNTVYLQINSLKPEDTAVYYCAASSRRSYLPEGQGEYWGQGTQVTVSS | high polyreactivity
QVQLVESGGGLVQAGGSLRLSCAASGGIFIDYTMGWYRQAPGKERELVAAITRGGSTYYADSVKGRFTISRDNAKNTVYLQMNSLKPEDTAVYYCAARANTPVGHNRFGYWGQGTQVTVSS | low polyreactivity
QVQLVESGGGLVQAGGSLRLSCAASGGIFIGYAMGWYRQAPGKERELVAAISYSGGSTYYADSVKGRFTISRDNAKNTVYLQMNSLKPEDTAVYYCAAQVDRKYRWFNSWGQGTQVTVSS | high polyreactivity
QVQLVESGGGLVQAGGSLRLSCAASGGIFIRYAMGWYRQAPGKEREFVAAIRWRGTNTYYADSVKGRFTISRDNAKNTVYLQMNSLKPEDTAVYYCAARPYYITRYKGMDYWGQGTQVTVSS | high polyreactivity
QVQLVESGGGLVQAGGSLRLSCAASGGIFKAYAMGWYRQAPGKEREFFAAITSSGGRTSYADSVKGRFTISRDNAKNNVYLQKNSLKQEDTAVYYCAAYGDGIVNSWDSYSEMDYWGQGTQVTVSS | low polyreactivity
QVQLVESGGGLVQAGGSLRLSCAASGGIFKRNTMGWYRLAPGKERELVAAISRSGGSTYYADSVKGRFTISRDNAKNTVYLQMNSLKPEDTAVYYCARRFPYNYYVYGEDYWGQGTQVTVSS | high polyreactivity
QVQLVESGGGLVQAGGSLRLSCAASGGIFKRNTMGWYRQAPGKERELVAGISWTGGRTYYADSVKGRFTISRDNAKNTVYLHMNSLKPEDTAVYYCAAKPLQGVRRVEYWGQGTQVTVSS | high polyreactivity
QVQLVESGGGLVQAGGSLRLSCAASGGIFKVYGMRWYRQAPGKERELVAAISWTTGGTYYADSVKGRFTISRDNAKITVYLQMNSLKQEDTAVYYCAAEYADSWSAFDWNYYYWGQGTQVTVSS | high polyreactivity
QVQLVESGGGLVQAGGSLRLSCAASGGIFLVNDMGWYRPAPGKEWELVAAITSGGGTYYADSVKGRFTISRDNAKNTVYLQMNSLKPEDTAVYYCARDTYRQIVSNESYGYWGQGTQVTVSS | low polyreactivity
QVQLVESGGGLVQAGGSLRLSCAASGGIFNINAMGWYRQAPGKERELVASIRGSGGRTYYADSVKGRFTISRDNAKNTVYLQMNSLKPEDTAVYYCNAESYSTWSFGHRYEYDYWGQGTQVTVSS | low polyreactivity
QVQLVESGGGLVQAGGSLRLSCAASGGIFNRNAMGWYRQAPGKERELVAAISSGGGSTYYADSVKGRFTISRDNAKNTVYLQMNSLKPEDTAVYYCARDSYHLYIQPFGYWGQGTQVTVSS | low polyreactivity
QVQLVESGGGLVQAGGSLRLSCAASGGIFPAYAMGWYRQAPGKERELVASISSSGGSTYYADSVKGRFTISRDNAKNTVYLQMNSLKPEDTAVYYCNVAQYLRARRPVDYWGQGTQVTVSS | high polyreactivity
QVQLVESGGGLVQAGGSLRLSCAASGGIFPGNAMGWYRPAPGKERELVATISYSGGSTYYADSVKGRFTISRDNAKNTVYLQMNSLKPEDTAVYYCAARGYKPTRSRRTEYGYWGQGTQVTVSS | high polyreactivity
QVQLVESGGGLVQAGGSLRLSCAASGGIFPLNAMGWYRQAPGKERELVAAISRRGGSTYYADSVKGRFTISRDNAKNTVYLQMNSLKPEDTAVYYCAAVTVRKFYKGINYWYEYWGQGTQVTVSS | high polyreactivity
QVQLVESGGGLVQAGGSLRLSCAASGGIFPYYAMGWYRQAPGKERELVAGISQNDGRTYYADSVKGRFTISRDNAKNTVYLQMNSLKPEDTAVYYCATDYWYPRYGYWGQGTQVTVSS | low polyreactivity

Sequence | polyreactivity (PSR sort gate)
QVQLVESGGGLVQAGGSLRLSCAASGGIFRGYAMGWYRQAPGKERELVAAITKRGGRTYYADSVKGRFTISRDNAKNTVYLQMNSLNPEDTAVFYCAADYYAAYHLPDLDYDYWGQGTQVTVSS | high polyreactivity
QVQLVESGGGLVQAGGSLRLSCAASGGIFRGYVMGWYRQAPGKERELVAAISYSGGNTYYADSVKGRFTISRDNAKNTVYLQMNSLKPEDTAVYYCDTVRSDFHSDDYWGQGTQVTVSS | low polyreactivity
QVQLVESGGGLVQAGGSLRLSCAASGGIFRLYGMGWYRQAPGKERELVAAIRQSGGRTYYADSVKGRFTISRDNAKNTDYLQMNSLKPEDTAVYYCAADLLYRSSGTVRSDYSRYDYWGQGTQVTVSS | low polyreactivity
QVQLVESGGGLVQAGGSLRLSCAASGGIFRLYGMGWYRQAPGKERELVAAIRQSGGRTYYADSVKGRFTISRDNAKNTVYLQMNSLKPEDTAVYYCAADLLYRSSGTVRSDYSRYDYWGQGTQVTVSS | low polyreactivity
QVQLVESGGGLVQAGGSLRLSCAASGGIFRNYAMGWYRQAPGKERELVARISSAGSTNYADSVKGRFTISRDNAKNTVYLQMNSLKPEDTAVYSCAAYPYVGYVSFSAYDYWGQGTQVTVSS | low polyreactivity
QVQLVESGGGLVQAGGSLRLSCAASGGIFRSYTMGWYRQAPGKERELVAAISRSGGRTYYADSVKGRFTISRDNAKNTVYLQMNSLKPEDTAVYYCAAYVRSATLRVNYGYWGQGTQVTVSS | high polyreactivity
QVQLVESGGGLVQAGGSLRLSCAASGGIFRWYTMGWYRPAPGKERELVAAITGSGGRTFYADSVKGRFTISRDNAKNTVYLQMNSLKPEDTAVYYCAKPQAQVGGYWGYDYWGQGTQVTVSS | high polyreactivity
QVQLVESGGGLVQAGGSLRLSCAASGGIFRYYAMGWYRQAPGKERELVAAISKRGGSTYYADSVKGRFTISRDNAKNTVYLQMNSLKPEDTAVYYCAAEGYYGSSYGYWGQGTQVTVSS | high polyreactivity
QVQLVESGGGLVQAGGSLRLSCAASGGIFRYYAMGWYRQAPGKERELVAAISKSGGRTYYADSVKGRFTISRDNAKNTVYLQMNSLKPEDTAVYYCAADLYPFSRNTRYQFLYNYWGQGTQVTVSS | low polyreactivity
QVQLVESGGGLVQAGGSLRLSCAASGGIFRYYAMGWYRQAPGKERELVAAISSGGRTYYADSVKGRFTISRDNAKNTVYLQMNSLKPEDTAVYYCNADRYWGYDYWGQGTQVTVSS | high polyreactivity
QVQLVESGGGLVQAGGSLRLSCAASGGIFSAYAMGWSRQAPGKERELVAVINGSGSNTYYADSVKGRFTISRDNAKNTVYLQMNSLKPEDTAVYYCAARVYVSRSKRLNYWGQGTQVTVSS | high polyreactivity
QVQLVESGGGLVQAGGSLRLSCAASGGIFSAYVMGWSRQAPGKERELVAAITRRGGSTYYADSVKGRFTISRDNAKNTVYLQMNSLKPEDTAVYYCAALLRGQDRTMDYWGQGTQVTVSS | high polyreactivity
QVQLVESGGGLVQAGGSLRLSCAASGGIFSRYAMGWYRQAPGKEREFVAAISFSGASTYYADSVKGRFTISRDNAKNTVYLQMNSLKPEDTAVYYCAAYWDAEGRRYTRLDYWGQGTQVTVSS | low polyreactivity
QVQLVESGGGLVQAGGSLRLSCAASGGIFSSYAMGWYRPAPGKERELVAAIDSDGTTYYADSVKGRFTISRDNAKNTVYLQMNSLKPEDTAVYYCATGYPVRYRGYLNWSYYAYDYWGQGTQVTVSS | low polyreactivity
QVQLVESGGGLVQAGGSLRLSCAASGGIFSYNVMGWYRQAPGKERELVAAITRGGSTYYADSVKGRFTISRDNAKNTVYLQMNSLKPEDTAVYYCAAVRNYLWTGYDYWGQGTQVTVSS | high polyreactivity
QVQLVESGGGLVQAGGSLRLSCAASGGIFSYYAMGWYRQAPGKERELVAAITGSGATTYYADSVKGRFTISRDNAKNTVYLQMNSLKPEDTAVYYCAADYWTAFYTLDSWGQGTQVTVSS | low polyreactivity
QVQLVESGGGLVQAGGSLRLSCAASGGIFSYYVMGWYRQAPGKEREFVASITQRGRTYYADSVKGRFTISRDNAKNTVYLQINSLKPEDTAVYYCAAGIYAFRRHREEYDYWGQGTQVTVSS | high polyreactivity
QVQLVESGGGLVQAGGSLRLSCAASGGIFTSNAMGWYRQAPGKERELVAAITKNGGRTYYADSVKGRFTISRDNAKNTVYLQMNSLKPEDTAVYYCNAAVTFRCYDYWGQGTQVTVSS | high polyreactivity
QVQLVESGGGLVQAGGSLRLSCAASGGIFVPNAMGWSRQAPGKARELVAAISYSGGRTYYADSVKGRFTISRDNAKNTVYLQMTSLKPEDTAVYYCAAEYWFVYHHYNYWGQGTQVTVSS | high polyreactivity
QVQLVESGGGLVQAGGSLRLSCAASGGIFVVYGMGWYRQAPGKERELVAAISWRGGSTYYADSVKGRFTISRDNAKNTVYLQMNSLKPEDTAVSYCAADQYYGGYDYWGQGTQVTVSS | low polyreactivity
